{"source": "the DeepSol protein solubility set", "data": [{"assay": "soluble on expression in E. coli; label from the status in PepcDB or PDB records", "values": [{"sequence": "MGSDKIHHHHHHMELYAASYILPIASPPIPGGAVAVHDGCIVETGTLAELRSRHSGPVHDFPGCAILPGLVNAHTHLELTHFPSWKIRKGIDYSPRTYVDWIIQVIKIRRALSPQELELSVREGLRICLEAGTTAIGEILTDRSLIPLYADSGLRGRLLFEAIGHDPVRNAQLVEELDAAIASFSGGSFLPGISPHAPHTVAEHLHQDVYRLAYERNVPRVIHLAESREESDFFFDSSGKIAEFLYPHVRWESYLPAPRRTTATAWLDGLGVLNGTISAVHCVHLTPSDAEILAKRGVGVVLCPRSNDKLAVGRAPVVLLKRLGVPLALGTDSLASNDSLSLWDEMRYLLDTFPGIFTPTEALSMTTIGSARQLALADRTGSLDKGKHADFLVMKLPGRNGSGEALHEALIHSGEILQVFLAGNLVVSREAFS", "soluble on expression in E. coli": "not soluble"}, {"sequence": "MKRALFVAEKNDVAKGVAAILSNGTANRREGRSKFNKIYTLNTELFGQQTAISVTSVSGHMMNFQFHENMSNWQTASMVELFRAPVRHVVTPEMKLIEQTLREQAQRHDILVVWTDCDREGEAIGAEIVKVCRDSNRRLDIFRARFSEITKAAITRAARNLIRLDEKTVAAVDCRSELDLRIGSAFTRLQTLHLRNRFRDLLGQNDTSQVISYGSCQFPTLGFVTDRYKMIENFVSEPFWKLIVEHTRESHKVEFLWDRNRLFDRDTVDILHDECKETKEAHVEKVAKKPKSKWRPQALDTVELEKLGISKLRMSAKQTMQVAEKLYSKGFISYPRTETNKFPAGLNLTPLVQQQTQSNIWGDFANEVLQNGVNPRNGRKSDEAHPPIHPLKFTEKHQLQGDDWKVYELVVRHFLACVSQDAQGEETMVNLTVGTEKFHASGLRIRDMGYLKVYVYEKWGNRLLPTYTEGERFTDFELKIGDGKTQAPDFLTEADLISLMDKYGIGTDATHAEHIEKIKTREYIGVRPDGKLIPSFLGLALVDGYDDMGFAMSKPDLRANLEIGLKEICDGRRQKQEVLDEQIGKYRAIFVESERKIGVLSQSLQRYLDKNNQAGGGPGGPGGGGGPPRGPGGGGGGGPTGPPAPPKPPAKPRGRPPRKSISPAVKNGHDDPENDTIVTLSEVFGSMSNPKPARKPRAPRKSAAPKEQEEEEEVFCQCPEPMRAVTKVVQKEGPNKGKKFYTCSLPYTSSEKCNFFKWA", "soluble on expression in E. coli": "not soluble"}, {"sequence": "MADDSVLPSPSEITSLADSSVFDSKVAEMSKENLCLASTSNVDEEMPQVEARVIMVQDAGKQEELLKALKEMKVPCVKMDSMEEFESLDSPEFENIFVVTDFQNSVFNDLYKADCRIVGPPVILNCAQRGEPLPFSCRPLYCTSMLNLVLCFTGFRKKEELVKLVTLVHHMGGVIRKECNSKVTHLVANCTQGEKFRVAVSLGTPIMKPEWIYKAWERRNEQCFCAAVDDFRNEFKVPPFQDCILSFLGFSDEEKHSMEEMTEMQGGSYLPVGDERCTHLIVEENTVKDLPFEPSKKLFVVKQEWFWGSIQMDARAGETMYLYEKANTPELKKSVSLLSLSTPNSNRKRRRLKETLAQLSRETDLSPFPPRKRPSAEHSLSIGSLLDISNTPESSIHYGETPKSCAKSSRSSTPVPPKQSARWQVAKELYQTESNYVNILATIIQLFQVPLEEEGQRGGPILAPEEIKTIFGSIPDIFDVHMKIKDDLEDLIANWDESRSIGDIFLKYAKDLVKTYPPFVNFFEMSKEMIIKCEKQKPRFHAFLKINQAKPECGRQSLVELLIRPVQRLPSVALLLNDLKKHTADENPDKSTLEKAIGSLKEVMTHINEDKRKTEAQKQIFDVVYEVDGCPANLLSSHRSLVQRVETVSLGEHPCDRGEQVTLFLFNDCLEIARKRHKVIGTFRSPHDRTRPPASLKHIHLMPLSQIKKVLDIRETEDCHNAFALLVRPPTEQANVLLSFQMTSEELPKESWLKMLCRHVANTICKADAENLMYVADPESFEVNTKDMDSTLSRASRAIKKTSKKVTRAFSFSKTPKRALRMALSSSHSSEGRSPPSSGKLAVSRLSSTSSLAGIPSPSLVSLPSFFERRSHTLSRSTTHLI", "soluble on expression in E. coli": "soluble"}, {"sequence": "MAHHHHHHMQRHTVEKKLQRSTHAAECHTDVAVVRLPHVQREVRQRLVHHAARVAVDSSLRQGRHNRVGHLKGKTRRAMPSVPAAARARVAVHRLRPGHVARRVVVARAAPEHHHALRKHTVVQHLPPFLVQVAPHHKPRGRRHNRVRWKKFGKGCTSFHLTVVCKHHSGAAARQLNFLLRTWHT", "soluble on expression in E. coli": "not soluble"}, {"sequence": "MAHHHHHHMDQLVYYVMVQHNSIQPIIVRQPPTVVIHTQPNPPITLDLPPQNIILKNDEPQPIIVRQQNPNIIVQKSGNEFSENPNYALSLNQQMKEITSMTSPSAAIPHGGIAQVGIPHVTNEPLLGVTTPEMNELTDPAYIYSNQYITTQNKSQPMNNMYFTSVPLNNDGSYSPYNMTLYANKREDYTKSTPSKY", "soluble on expression in E. coli": "not soluble"}, {"sequence": "MSLNTENIRIIALGGVGEIGKNLYVIEIDSDIFVVDAGLMHPENEMLGIDVVIPDISYLIERSDRVKAIFLTHGHEENIGGVFYCLNKLSVPVYGTKLTLALLKETLKQYGVNKKPDLREIHSKSVITFESTKVSFFKTNHSIPDSVGVSFKTSLGSIVCTGDFKFDQTPVLNQTSDIGEIAKIGNSGVLCLLSDSANAEKPGYTPSEALVGGEISDVMYNAENRVIIAVFASNFNRIQQVIDAALQNGRKLAVSGKNISAILQLAMKLGYVTADEDMFIPVQEVKKYPKREVAILTGDNHGEPLAALTRIAKQGHKQLDIEEGDTVLIASSPIPGQELVYSKAVDLLTRAGAQVVFAQKRVHVSGHGCQEELKLMLNLLKPKYLIPVNGEYRMQKAHSKLAEEIGMKRSDIFLIEKGDVVEFRGQNVKIGDKVHSGNILIDGLGVGDIGNIVLRDRRLLSQDGILIVVITLDKKKKHLVSGPEIITRGFVYVRESEQLIVEATELVRELVNESTENAVVEWSALKQTMREALNQFLYEKTKRKPMIIPIIMEEGHHHHHH", "soluble on expression in E. coli": "soluble"}, {"sequence": "MHHHHHHSSGVDLGTENLYFQSNAMNDPKVIVALDYDNLADALAFVDKIDPSTCRLKVGKEMFTLFGPDFVRELHKRGFSVFLDLKFHDIPNTCSKAVKAAAELGVWMVNVHASGGERMMAASREILEPYGKERPLLIGVTVLTSMESADLQGIGILSAPQDHVLRLATLTKNAGLDGVVCSAQEASLLKQHLGREFKLVTPGIRPAGSEQGDQRRIMTPAQAIASGSDYLVIGRPITQAAHPEVVLEEINSSLV", "soluble on expression in E. coli": "soluble"}, {"sequence": "MPKPSVGINGFGRIGRLVLRAAVEKDSVNVVAVNDPFISIDYMVYLFQYDSTHGRFKGTVAHEGDYLLVAKEGKSQHKIKVYNSRDPAEIQWGASGADYVVESTGVFTTIEKANAHLKGGAKKVIISAPSADAPMFVVGVNHEKYDHANDHIISNASCTTNCLAPLAKVINDNFGIIEGLMTTVHAVTATQKTVDGPSGKLWRDGRGAGQNIIPASTGAAKAVGKVIPELNGKLTGMAFRVPTPDVSVVDLTARLEKPASLDDIKKVIKAAADGPMKGILAYTEDQVVSTDFVSDTNSSIFDAGASISLNPHFVKLVSWYDNEFGYSNRVVDLISYIATKA", "soluble on expression in E. coli": "not soluble"}, {"sequence": "MGSDKIHHHHHHMKIGILSQFPELYSTRRLVAACESRGHEAVVINTLNCYMNINSIKPSIHYQGQELTGFDAIIPRIHASVTFYGCAVVRQFEMMGVFAANDSISIARSRDKLRALQLLSRKGIGMPITGFANKPNDIPDLINMVGGAPLVIKLLEGTQGIGVVLAETKTAAESVIEAFLGLKANIMLQEYIKESNGSDIRCFVVGDKVVASMKRQGPEGDFRSNLHLGGCGEKVKITPKERKMAVAAVKAMGLVVAGVDILRSNRGPLILEVNSAPGIEGIEQTTGISVTEPIVEYIEKMVLAQKSNRPVIA", "soluble on expression in E. coli": "not soluble"}, {"sequence": "MVVVRLPKEIEERLTALARKTGRSKSYYVRQALLEYLDDLEDYYLAVERLEERLPGIPLDEVERRLGLSD", "soluble on expression in E. coli": "soluble"}, {"sequence": "MNRRRKLLIPLLFCGAMLTACDDKSAENAAAMTPEVGVVTLSPGSVNVLSELPGRTVPYEVAEIRPQVGGIIIKRNFIEGDKVNQGDSLYQIDPAPLQAELNSAKGSLAKALSTASNARITFNRQASLLKTNYVSRQDYDTARTQLNEAEANVTVAKAAVEQATINLQYANVTSPITGVSGKSSVTVGALVTANQADSLVTVQRLDPIYVDLTQSVQDFLRMKEEVASGQIKQVQGSTPVQLNLENGKRYSQTGTLKFSDPTVDETTGSVTLRAIFPNPNGDLLPGMYVTALVDEGSRQNVLLVPQEGVTHNAQGKATALILDKDDVVQLREIEASKAIGDQWVVTSGLQAGDRVIVSGLQRIRPGIKARAISSSQENASTESKQ", "soluble on expression in E. coli": "not soluble"}, {"sequence": "MRITLVDHPLVQHKLAHLRDKRTGPKDFRELAEEVAMLMAYEAMRDLELEETTVETPIAPARVKVLSGKKLALVAILRAGLVMVEGILKLVPHARVGHIGLYRDPESLNPVQYYIKLPPDIAERRAFLLDPMLATGGSASLALSLLKERGATGVKLMAILAAPEGLERIAKDHPDTEVVVAAIDERLNDHGYIVPGLGDAGDRIYGTK", "soluble on expression in E. coli": "soluble"}, {"sequence": "MGSDKIHHHHHHMQHDDQPLPQTAPHGRVISHLGETDTDDATLLASIKTRLRQHNDRSAAEMEHLLQLVDALWAMELGRFLLRNRGLNANWTHQLVTYQAGTLVQQTTPALEYELFEKTPAVLATRERFGIFRTQLQALLRPGMTLASLPCGWMADVLSLDYGQCPDVRLIGIDLDPQALDGALRLAQQYGLEGQLTLQREDAWAPGEPNSVDVLSSNGLNLYEPDDARVIALYRAFFDRLRPGGTLVASFLTPPPSLCAESPWKLDLIDGAALVLQSQVFIDVVQARWASFRTHAQTRTQLESAGFTDVRFIDDRASIFPTVIARKPMSD", "soluble on expression in E. coli": "not soluble"}, {"sequence": "NNSQFFMGIPRLKFPADAPSRSTLKLEEAFHVFIPRDEWDERLAPGMWGVDLGACPGGWTYQLVKRSMFVHCVDNGMMADSLMETGQIKHHMVDGFKFEPDRKNVTWIVCDMVEKPARVAHLMGQWLLKGWAKEAIFNLKLPMKGRYDEVLQDLENLKMFLIENKVKFKLQAKHLYHDREEITIHIQCLSNISPH", "soluble on expression in E. coli": "not soluble"}, {"sequence": "MGSDKIHHHHHHSFSLPGYLFGRCPDYSITYDKNDAQEQKDVYICDGNKSVVRIDSYKWNSSSSDWVYDGKTVMENDNQGRTLVAISYSAADVAGEKTEYTYTGNGYEKFSVTSSSFEGGAWKAEAKVDIEATFNKDKYPVSILMTGTAEGETFKMKMEWSYDKNVTKTSSSIDFGGSWMLMSESKTEIVDAGNPMISKNYQKMYFPAETSWEYSGKTHDYFNGTTSIAPVVEENELKLHIYGDVLEVQGTESGISIYAITGGKMAESKSNRIDISRLPAGIYLLNTARGSIKFIHK", "soluble on expression in E. coli": "not soluble"}, {"sequence": "MAGLGELERAVMDHLWSTSEPQTVRQVHEALAARRELAYTTVMTVLQRLAKKHLVIQQRDDRAHRYLPVHQREELVASLMVDALQQADKSGSRAAALVHFVGQVGADEADALREALAALEAKERSTGDNQSGTVRAG", "soluble on expression in E. coli": "not soluble"}, {"sequence": "NVDKAIKFGQIQNKAVTLGQGGFFNDDFSDGQAGVHYPDLDNAEPMPESEKLQYEKRLVGFYLSHHPLDRFRRDWEAFASLTLDKRDVTPSKL", "soluble on expression in E. coli": "not soluble"}, {"sequence": "MSEVVTDRLRMALEAMAQKDDDAAWEVIDGDDEINQLYLDLEDDCIDLLALQQPVAGDLRLIASSFKIITDLERIGDLAANLAEYTLDADRDMFPEVDVQAIGDRTIEMVTDAMAAYASADVEACYAIAERDDDIDERCRSASQTVIRDLIETEIDAATDDAEIEALMQDVSRLLLTVRDLERVGDHAVNISARTVYMVDNDDELIY", "soluble on expression in E. coli": "soluble"}]}]}
